Reference: PMC10322703 (Nature Microbiology, 2023)

B1: SNV-42, human monoclonal antibody (IgG1) (antibody, V domains shown)
VH: EVQLVESGGGLVQPGGSLRLSCAASGFTFSTYEMNWVRQAPGKGLEWVSYIRSSGSTVYYADSVKGRFTISRDNAKNLLYLQMNSLRAGDTAVYYCARIPGGYTGYFDYWGQGALVTVSS
VL: QSVLTQPPSVSGAPGQRVTISCTGSSSNIGAGYYVHWYQQLPGTVPKLLIYGNNNRPSGVPDRFSGSKSGTSASLAITGLQTEDEADYYCQSYDSSLSGWVFGGGTKLTVL
B2: SNV-42 Fab (Fab, V domains shown)
VH: EVQLVESGGGLVQPGGSLRLSCAASGFTFSTYEMNWVRQAPGKGLEWVSYIRSSGSTVYYADSVKGRFTISRDNAKNLLYLQMNSLRAGDTAVYYCARIPGGYTGYFDYWGQGALVTVSS
VL: QSVLTQPPSVSGAPGQRVTISCTGSSSNIGAGYYVHWYQQLPGTVPKLLIYGNNNRPSGVPDRFSGSKSGTSASLAITGLQTEDEADYYCQSYDSSLSGWVFGGGTKLTVL
B3: SNV-42^GR, germline-revertant form of SNV-42 (IgG1) (antibody, V domains shown)
VH: EVQLVESGGGLVQPGGSLRLSCAASGFTFSSYEMNWVRQAPGKGLEWVSYISSSGSTIYYADSVKGRFTISRDNAKNSLYLQMNSLRAEDTAVYYCARIPGGYSGYFDYWGQGTLVTVSS
VL: QSVLTQPPSVSGAPGQRVTISCTGSSSNIGAGYDVHWYQQLPGTAPKLLIYGNSNRPSGVPDRFSGSKSGTSASLAITGLQAEDEADYYCQSYDSSLSGWVFGGGTKLTVL
B4: SNV-42 F(ab')2 (other)
chain 1: EVQLVESGGGLVQPGGSLRLSCAASGFTFSTYEMNWVRQAPGKGLEWVSYIRSSGSTVYYADSVKGRFTISRDNAKNLLYLQMNSLRAGDTAVYYCARIPGGYTGYFDYWGQGALVTVSS
chain 2: QSVLTQPPSVSGAPGQRVTISCTGSSSNIGAGYYVHWYQQLPGTVPKLLIYGNNNRPSGVPDRFSGSKSGTSASLAITGLQTEDEADYYCQSYDSSLSGWVFGGGTKLTVL

Biological target: SNV Gn^H, recombinant histidine-tagged N-terminal ectodomain region (head domain) of Sin Nombre viru (Sin Nombre virus, UniProt Q89905)
Assay: BLI
Conditions: both partners purified

Binder	Kd [nM]	koff [s⁻¹]	kon [M⁻¹ s⁻¹]
B1	< 0.001	< 1e-07	132000
B2	–	0.00561	139000
B3	0.811	0.000454	514000
B4	< 0.001	< 1e-07	61400
